Data published in patent US20230250154A1 (CYTONICS, published 2023).

Assays:
Assay in all cases: cell-based or functional assay
ADAMTS4 = target: T1, ADAMTS4 (human, UniProt O75173 213-685, limits assumed)
T1 sequence (looked up): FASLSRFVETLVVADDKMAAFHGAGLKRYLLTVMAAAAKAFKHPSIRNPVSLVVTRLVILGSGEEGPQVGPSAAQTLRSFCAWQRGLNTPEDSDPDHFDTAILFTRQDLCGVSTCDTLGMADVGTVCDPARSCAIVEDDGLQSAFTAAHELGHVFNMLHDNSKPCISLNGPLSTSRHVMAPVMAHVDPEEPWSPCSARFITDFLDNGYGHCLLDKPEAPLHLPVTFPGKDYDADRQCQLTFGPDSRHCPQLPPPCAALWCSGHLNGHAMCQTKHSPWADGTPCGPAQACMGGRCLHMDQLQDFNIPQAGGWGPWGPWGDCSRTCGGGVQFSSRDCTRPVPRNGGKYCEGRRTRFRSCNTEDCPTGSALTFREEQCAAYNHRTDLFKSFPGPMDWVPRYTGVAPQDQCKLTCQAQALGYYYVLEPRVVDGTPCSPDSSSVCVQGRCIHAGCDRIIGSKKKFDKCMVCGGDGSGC

ADAMTS5 = target: T2, ADAMTS5 (human, UniProt Q9UNA0 262-622, limits assumed)
T2 sequence (looked up): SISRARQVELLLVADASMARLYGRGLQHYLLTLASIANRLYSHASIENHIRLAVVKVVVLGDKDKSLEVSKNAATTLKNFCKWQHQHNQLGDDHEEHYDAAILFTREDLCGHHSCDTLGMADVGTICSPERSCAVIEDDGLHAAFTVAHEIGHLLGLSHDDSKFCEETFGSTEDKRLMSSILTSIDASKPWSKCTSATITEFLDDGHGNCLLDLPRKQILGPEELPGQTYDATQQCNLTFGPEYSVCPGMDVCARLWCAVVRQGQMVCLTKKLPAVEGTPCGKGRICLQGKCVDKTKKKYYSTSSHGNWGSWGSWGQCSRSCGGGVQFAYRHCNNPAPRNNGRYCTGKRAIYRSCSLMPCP

MMP13 = MMP13 (human, UniProt P45452 104-471, limits assumed)

B1: Variant A2M, bait region SEQ ID NO 119 (other)
chain: SVSGKPQYMVLVPSLLHTETTEKGCVLLSYLNETVTVSASLESVRGNRSLFTDLEAENDVLHCVAFAVPKSSSNEEVMFLTVQVKGPTQEFKKRTTVMVKNEDSLVFVQTDKSIYKPGQTVKFRVVSMDENFHPLNELIPLVYIQDPKGNRIAQWQSFQLEGGLKQFSFPLSSEPFQGSYKVVVQKKSGGRTEHPFTVEEFVLPKFEVQVTVPKIITILEEEMNVSVCGLYTYGKPVPGHVTVSICRKYSDASDCHGEDSQAFCEKFSGQLNSHGCFYQQVKTKVFQLKRKEYEMKLHTEAQIQEEGTVVELTGRQSSEITRTITKLSFVKVDSHFRQGIPFFGQVRLVDGKGVPIPNKVIFIRGNEANYYSNATTDEHGLVQFSINTTNVMGTSLTVRVNYKDRSPCYGYQWVSEEHEEAHHTAYLVFSPSKSFVHLEPMSHELPCGHTQTVQAHYILNGGTLLGLKKLSFYYLIMAKGGIVRTGTHGLLVKQEDMKGHFSISIPVKSDIAPVARLLIYAVLPTGDVIGDSAKYDVENCLANKVDLSFSPSQSLPASHAHLRVTAAPQSVCALRAVDQSVLLMKPDAELSASSVYNLLPEKDLTGFPGPLNDQDDEDCINRHNVYINGITYTPVSSTNEKDMYSFLEDMGLKAFTNSKIRKPKMCPQLELQQYEMHGPEGLRVGEAIPMSIPIPENFFGVKEEEGLGSKLRKYFPETWIWDLVVVNSAGVAEVGVTVPDTITEWKAGAFCLSEDAGLGISSTASLRAFQPFFVELTMPYSVIRGEAFTLKATVLNYLPKCIRVSVQLEASPAFLAVPVEKEQAPHCICANGRQTVSWAVTPKSLGNVNFTVSAEALESQELCGTEVPSVPEHGRKDTVIKPLLVEPEGLEKETTFNSLLCPSGGEVSEELSLKLPPNVVEESARASVSVLGDILGSAMQNTQNLLQMPYGCGEQNMVLFAPNIYVLDYLNETQQLTPEIKSKAIGYLNTGYQRQLNYKHYDGSYSTFGERYGRNQGNTWLTAFVLKTFAQARAYIFIDEAHITQALIWLSQRQKDNGCFRSSGSLLNNAIKGGVEDEVTLSAYITIALLEIPLTVTHPVVRNALFCLESAWKTAQEGDHGSHVYTKALLAYAFALAGNQDKRKEVLKSLNEEAVKKDNSVHWERPQKPKAPVGHFYEPQAPSAEVEMTSYVLLAYLTAQPAPTSEDLTSATNIVKWITKQQNAQGGFSSTQDTVVALHALSKYGAATFTRTGKAAQVTIQSSGTFSSKFQVDNNNRLLLQQVSLPELPGEYSMKVTGEGCVYLQTSLKYNILPEKEEFPFALGVQTLPQTCDEPKAHTSFQISLSVSYTGSRSASNMAIVDVKMVSGFIPLKPTVKMLERSNHVSRTEVSSNHVLIYLDKVSNQTLSLFFTVLQDVPVRDLKPAIVKVYDYYETDEFAIAEYNAPCSKDLGNADYKDDDDKGASHHHHHH
In the case of B1, the “Protease Inhibition (% of WT)” value (ADAMTS4) is reported as 100 % of WT, the “Protease Inhibition (% of WT)” value (ADAMTS5) is reported as 170 % of WT and the “Protease Inhibition (% of WT)” value (MMP13) is reported as 90 % of WT.

B2: Variant A2M, bait region SEQ ID NO 120 (other)
chain: SVSGKPQYMVLVPSLLHTETTEKGCVLLSYLNETVTVSASLESVRGNRSLFTDLEAENDVLHCVAFAVPKSSSNEEVMFLTVQVKGPTQEFKKRTTVMVKNEDSLVFVQTDKSIYKPGQTVKFRVVSMDENFHPLNELIPLVYIQDPKGNRIAQWQSFQLEGGLKQFSFPLSSEPFQGSYKVVVQKKSGGRTEHPFTVEEFVLPKFEVQVTVPKIITILEEEMNVSVCGLYTYGKPVPGHVTVSICRKYSDASDCHGEDSQAFCEKFSGQLNSHGCFYQQVKTKVFQLKRKEYEMKLHTEAQIQEEGTVVELTGRQSSEITRTITKLSFVKVDSHFRQGIPFFGQVRLVDGKGVPIPNKVIFIRGNEANYYSNATTDEHGLVQFSINTTNVMGTSLTVRVNYKDRSPCYGYQWVSEEHEEAHHTAYLVFSPSKSFVHLEPMSHELPCGHTQTVQAHYILNGGTLLGLKKLSFYYLIMAKGGIVRTGTHGLLVKQEDMKGHFSISIPVKSDIAPVARLLIYAVLPTGDVIGDSAKYDVENCLANKVDLSFSPSQSLPASHAHLRVTAAPQSVCALRAVDQSVLLMKPDAELSASSVYNLLPEKDLTGFPGPLNDQDDEDCINRHNVYINGITYTPVSSTNEKDMYSFLEDMGLKAFTNSKIRKPKMCPQLEEEGVEEGKEEEGLGSGPAGAARGSELEGRGSPTEGEARGSKLRKYFPETWIWDLVVVNSAGVAEVGVTVPDTITEWKAGAFCLSEDAGLGISSTASLRAFQPFFVELTMPYSVIRGEAFTLKATVLNYLPKCIRVSVQLEASPAFLAVPVEKEQAPHCICANGRQTVSWAVTPKSLGNVNFTVSAEALESQELCGTEVPSVPEHGRKDTVIKPLLVEPEGLEKETTFNSLLCPSGGEVSEELSLKLPPNVVEESARASVSVLGDILGSAMQNTQNLLQMPYGCGEQNMVLFAPNIYVLDYLNETQQLTPEIKSKAIGYLNTGYQRQLNYKHYDGSYSTFGERYGRNQGNTWLTAFVLKTFAQARAYIFIDEAHITQALIWLSQRQKDNGCFRSSGSLLNNAIKGGVEDEVTLSAYITIALLEIPLTVTHPVVRNALFCLESAWKTAQEGDHGSHVYTKALLAYAFALAGNQDKRKEVLKSLNEEAVKKDNSVHWERPQKPKAPVGHFYEPQAPSAEVEMTSYVLLAYLTAQPAPTSEDLTSATNIVKWITKQQNAQGGFSSTQDTVVALHALSKYGAATFTRTGKAAQVTIQSSGTFSSKFQVDNNNRLLLQQVSLPELPGEYSMKVTGEGCVYLQTSLKYNILPEKEEFPFALGVQTLPQTCDEPKAHTSFQISLSVSYTGSRSASNMAIVDVKMVSGFIPLKPTVKMLERSNHVSRTEVSSNHVLIYLDKVSNQTLSLFFTVLQDVPVRDLKPAIVKVYDYYETDEFAIAEYNAPCSKDLGNADYKDDDDKGASHHHHHH
With B2 the “Protease Inhibition (% of WT)” value (ADAMTS4) was 88 % of WT, the “Protease Inhibition (% of WT)” value (ADAMTS5) was 100 % of WT and the “Protease Inhibition (% of WT)” value (MMP13) was 121 % of WT.

B3: Variant A2M, bait region SEQ ID NO 121 (other)
chain: SVSGKPQYMVLVPSLLHTETTEKGCVLLSYLNETVTVSASLESVRGNRSLFTDLEAENDVLHCVAFAVPKSSSNEEVMFLTVQVKGPTQEFKKRTTVMVKNEDSLVFVQTDKSIYKPGQTVKFRVVSMDENFHPLNELIPLVYIQDPKGNRIAQWQSFQLEGGLKQFSFPLSSEPFQGSYKVVVQKKSGGRTEHPFTVEEFVLPKFEVQVTVPKIITILEEEMNVSVCGLYTYGKPVPGHVTVSICRKYSDASDCHGEDSQAFCEKFSGQLNSHGCFYQQVKTKVFQLKRKEYEMKLHTEAQIQEEGTVVELTGRQSSEITRTITKLSFVKVDSHFRQGIPFFGQVRLVDGKGVPIPNKVIFIRGNEANYYSNATTDEHGLVQFSINTTNVMGTSLTVRVNYKDRSPCYGYQWVSEEHEEAHHTAYLVFSPSKSFVHLEPMSHELPCGHTQTVQAHYILNGGTLLGLKKLSFYYLIMAKGGIVRTGTHGLLVKQEDMKGHFSISIPVKSDIAPVARLLIYAVLPTGDVIGDSAKYDVENCLANKVDLSFSPSQSLPASHAHLRVTAAPQSVCALRAVDQSVLLMKPDAELSASSVYNLLPEKDLTGFPGPLNDQDDEDCINRHNVYINGITYTPVSSTNEKDMYSFLEDMGLKAFTNSKIRKPKMCPQLEPESSGEAIPMSIPTSEDLVVQIPENFFGVEAEGTGGERGVLGKLRKYFPETWIWDLVVVNSAGVAEVGVTVPDTITEWKAGAFCLSEDAGLGISSTASLRAFQPFFVELTMPYSVIRGEAFTLKATVLNYLPKCIRVSVQLEASPAFLAVPVEKEQAPHCICANGRQTVSWAVTPKSLGNVNFTVSAEALESQELCGTEVPSVPEHGRKDTVIKPLLVEPEGLEKETTFNSLLCPSGGEVSEELSLKLPPNVVEESARASVSVLGDILGSAMQNTQNLLQMPYGCGEQNMVLFAPNIYVLDYLNETQQLTPEIKSKAIGYLNTGYQRQLNYKHYDGSYSTFGERYGRNQGNTWLTAFVLKTFAQARAYIFIDEAHITQALIWLSQRQKDNGCFRSSGSLLNNAIKGGVEDEVTLSAYITIALLEIPLTVTHPVVRNALFCLESAWKTAQEGDHGSHVYTKALLAYAFALAGNQDKRKEVLKSLNEEAVKKDNSVHWERPQKPKAPVGHFYEPQAPSAEVEMTSYVLLAYLTAQPAPTSEDLTSATNIVKWITKQQNAQGGFSSTQDTVVALHALSKYGAATFTRTGKAAQVTIQSSGTFSSKFQVDNNNRLLLQQVSLPELPGEYSMKVTGEGCVYLQTSLKYNILPEKEEFPFALGVQTLPQTCDEPKAHTSFQISLSVSYTGSRSASNMAIVDVKMVSGFIPLKPTVKMLERSNHVSRTEVSSNHVLIYLDKVSNQTLSLFFTVLQDVPVRDLKPAIVKVYDYYETDEFAIAEYNAPCSKDLGNADYKDDDDKGASHHHHHH
For B3, the “Protease Inhibition (% of WT)” value (ADAMTS4) was 64 % of WT, the “Protease Inhibition (% of WT)” value (ADAMTS5) was 68 % of WT and the “Protease Inhibition (% of WT)” value (MMP13) was 115 % of WT.
